Results reported in publication PMC12480940.

Key:
Assay in all cases: SPR; Biacore T200, 25 °C, pH 5.5 (177 mM phosphate, 85 mM NaCl, 0.005% TWEEN-20); FIX-HSA variants amine-coupled (200 RU) on CM5; soluble His-tagged hFcRn (15.6-2000.0 nM for HSAWT, 1.95-62.5 nM for HSAQMP) or mFcRn (7.8-8000.0 nM for HSAWT, 3.9-500 nM for HSAQMP) injected; 1:1 Langmuir model
PaduaKR-HSAQMP (human) = PaduaKR-HSAQMP (human) (UniProt P02768)
FIXKR-HSAWT (human) = FIXKR-HSAWT (human) (UniProt P02768)
PaduaKA-HSAQMP (human) = PaduaKA-HSAQMP (human) (UniProt P02768)
FIXKA-HSAWT (human) = FIXKA-HSAWT (human) (UniProt P02768)
Padua-HSAQMP (human) = molecular target: Padua-HSAQMP (human)

Row | Kd (PaduaKR-HSAQMP (human)) [µM] | koff (PaduaKR-HSAQMP (human)) [s⁻¹] | Kd (FIXKR-HSAWT (human)) [µM] | koff (FIXKR-HSAWT (human)) [s⁻¹] | Kd (PaduaKA-HSAQMP (human)) [µM] | koff (PaduaKA-HSAQMP (human)) [s⁻¹] | Kd (FIXKA-HSAWT (human)) [µM] | koff (FIXKA-HSAWT (human)) [s⁻¹] | Kd (Padua-HSAQMP (human)) [µM] | koff (Padua-HSAQMP (human)) [s⁻¹] | Substance
1 | 0.0003 | 7e-05 | 0.19 | 0.00827 | 0.0002 | 6e-05 | 0.177 | 0.00769 | – | – | soluble truncated His-tagged human neonatal Fc receptor (from UniProt P55899 24-297; P61769 21-119)
2 | 0.0549 | 0.00429 | – | – | 0.0517 | 0.0028 | – | – | 0.0446 | 0.00512 | soluble truncated His-tagged mouse neonatal Fc receptor (from UniProt Q61559 22-297; P01887 21-119)
